No end group written: not given here.
Experiments:
[1] = molecular target: T1, human GPR75 (372-540 aa region), His-tagged (human, UniProt O95800 372-540); assay: SPR (Nicoya OpenSPR), His-tagged GPR75 on NTA sensor, one-to-one fit; curve at 92.4 µM
T1 construct: range 372-540; also called G-Protein Receptor 75; not shown: His tag

[2] = molecular target: T1, human GPR75 (372-540 aa region), …; assay: SPR (Nicoya OpenSPR), His-tagged GPR75 on NTA sensor, one-to-one fit; second curve at 49.3 µM
[3] = molecular target: T1, human GPR75 (372-540 aa region), …; assay: SPR (Nicoya OpenSPR), His-tagged GPR75 on NTA sensor, one-to-one fit; second curve at 12.3 µM
[4] = molecular target: T1, human GPR75 (372-540 aa region), …; assay: SPR (Nicoya OpenSPR), His-tagged GPR75 on NTA sensor, one-to-one fit; curve at 12.3 µM
[5] = molecular target: T1, human GPR75 (372-540 aa region), …; assay: SPR (Nicoya OpenSPR), His-tagged GPR75 on NTA sensor, one-to-one fit; curve at 4.9 µM
[6] = molecular target: T1, human GPR75 (372-540 aa region), …; assay: SPR (Nicoya OpenSPR), His-tagged GPR75 on NTA sensor, one-to-one fit; curve at 4.93 µM
[7] = molecular target: T1, human GPR75 (372-540 aa region), …; assay: SPR (Nicoya OpenSPR), His-tagged GPR75 on NTA sensor, one-to-one fit; curve at 49.3 µM
[8] = molecular target: T1, human GPR75 (372-540 aa region), …; assay: SPR (Nicoya OpenSPR), His-tagged GPR75 on NTA sensor, one-to-one fit; curve at 123.23 µM
[9] = molecular target: T1, human GPR75 (372-540 aa region), …; assay: SPR (Nicoya OpenSPR), His-tagged GPR75 on NTA sensor, one-to-one fit; curve at 24.65 µM

Measured: koff

T1 sequence (O95800 372-540 limits assumed): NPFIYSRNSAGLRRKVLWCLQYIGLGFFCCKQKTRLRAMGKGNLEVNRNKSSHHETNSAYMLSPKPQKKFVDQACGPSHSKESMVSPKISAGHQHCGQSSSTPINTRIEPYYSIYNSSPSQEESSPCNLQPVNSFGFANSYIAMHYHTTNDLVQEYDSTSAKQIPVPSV

B1: SU75-37 (peptide)
peptide: TFTSDLSKYLEEEVREFIWLKNGGPSDVNTDRPGLLDLK-NH2
notes: Synthetic, non-naturally occurring peptide; also called Drug37; SUODN37
0.0141 s⁻¹: all assays above

Source: patent US20260055141A1, “COMPOSITIONS AND METHODS FOR CONTROLLING FOOD INTAKE, ENERGY EXPENDITURE, AND BODY WEIGHT FOR THE TREATMENT OF OBESITY AND METABOLIC DISEASES” (The Trustees of the University of Pennsylvania, priority 2022, published 2026)
